From PMC12772958

Biological target: PLEKHO2
Test: BioID in situ proximity labelling, streptavidin pulldown, mass spectrometry (LFQ)
Details: U937 stable cell lines; biotin 24 h; n=3; read off a plot

enrichment: 5.2
Substance: BirA*–MYO1F tail (from UniProt O00160) K770A; R780A
